# In patent publication US6362319B1, “Glial cell line-derived neurotrophic factor” (Amgen Inc., priority 1991, dated 2002):
# Experiments:
# [1] = test system: GABA neurons in mesencephalic cultures; assay: 14C-GABA uptake in mesencephalic cultures; format: cell-based, rat; settings: cultures grown with GDNF for 16 days
# Description: FIGS. 21A-C depicts the specificity of GDNF to dopaminergic neurons. Cultures were established as described in Example 1B. GDNF was added on the day of plating. A. ^3H-DA uptake was measured after seven days in vitro. B. ^14C-GABA uptake was measured after eight days in vitro. Cells were incubated and treated as for ^3H-DA uptake, except the uptake buffer consists of Kreb-Ringer's phosphate buffer, pH 7.4, containing 5.6 mM glucose, 1.3 mM EDTA, 10 μM amino-oxyacetic acid (to prevent GABA breakdown), 2 mM β-alanine (to inhibit glia uptake of GABA) and 0.1 μM ^14C-GABA (150 mCi/mmole, New England Nuclear, Boston, Mass.). In the presence of 1 mM diaminobutyric acid (DABA), a potent inhibitor of ^14C-GABA uptake into GABA neurons, the ^14C-uptake was reduced to 10%. Control values in the presence of DABA were subtracted from experimental values.
# H^3-dopamine (^3H-DA) and ^14C-GABA uptake were measured in sister cultures of mesencephalic cells which had been grown with various concentrations of GDNF for 15 and 16 days, respectively. As described above, GDNF enhanced the ^3H-DA uptake capacity of mesencephalic dopamine neurons ˜150% over control without GDNF (FIG. 21A). […] This is also illustrated by the increase in the ^3H-DA/^14C-GABA uptake ratio calculated (FIG. 21C).
# [2] = test system: serotonergic neurons in rat embryo mesencephalic cultures; assay: 3H-serotonin uptake in mesencephalic cultures; format: cell-based; settings: uptake after 6 days in vitro
# Description: FIGS. 24A-B depicts the specificity of GDNF to dopaminergic neurons. Cultures were prepared as described in Example 1B. GDNF was added on the day of plating, and uptake was measured after 6 days in vitro. A depicts dopamine uptake and B depicts serotonin uptake.
# In the presence of 10 μM citalpram (obtained from Dr. C. Mytilineou, Mount Sinai School of Medicine), a known potent inhibitor of serotonin uptake in serotonin neurons, the ^3H-serotonin uptake was reduced to 15%.
# [3] = test system: parasympathetic nerve cells from chick embryo ciliary ganglia; assay: Neuronal survival assay (MTT), ciliary ganglia; format: cell-based
# Description: Cultures of primary check embryo ciliary ganglia and sympathetic chain ganglia were prepared as previously described (Collins 1978 Develop. Biol. 65:50; Manthorpe et al. 1986 Develop. Brain Res. 25:191). Briefly, ciliary or sympathetic ganglia were removed from fertile, pathogen free chicken eggs that had been incubated for 8 and 10 days, respectively, at 38° C. in a humidified atmosphere. […]
# Ten μl of a serial dilution of the sample to be assayed for neurotrophic activity was added to each well and the dishes were incubated for 20 hours at 37° C. in a humidified atmosphere containing 7.5% CO2. […] The absorbance of 570 nm was determined relative to a 690 nm reference for each well using an automatic microtiter plate reader (Dynatech, Chantilly, Va.). The absorbance of wells which had not received any neurotrophic agent (negative controls) was substracted from the absorbance of sample-containing wells. The resulting absorbance is proportional to the number of living cells in each well, defined as those nerve cells capable of reducing the dye. […] Specific activity was determined by dividing the number of trophic units by the amount of protein present in the sample.
# [4] = test system: sympathetic neurons from chick embryo sympathetic chain ganglia; assay: Neuronal survival assay (MTT), sympathetic chain ganglia; format: cell-based
# Description: Cultures of primary check embryo ciliary ganglia and sympathetic chain ganglia were prepared as previously described (Collins 1978 Develop. Biol. 65:50; Manthorpe et al. 1986 Develop. Brain Res. 25:191). Briefly, ciliary or sympathetic ganglia were removed from fertile, pathogen free chicken eggs that had been incubated for 8 and 10 days, respectively, at 38° C. in a humidified atmosphere. The ganglia were chemically dissociated by exposure first to Hands' Balanced Salt Solution without divalent cations, containing 10 mM HEPES buffer pH 7.2 for 10 min at 37° C., and then by exposure to a solution of 0.125% bactotrypsin 1:250 (Difco, Detroit, Mich.) in Hanks' Balanced Salt Solution modified as above for 12 min at 37° C. Trypsinization was stopped by addition of fetal calf serum to a final concentration of 10%.
# After this treatment, ganglia were transferred to a solution consisting of Dulbecco's high glucose Modified Eagle Medium without bicarbonate containing 10% fetal calf serum and 10 mM HEPES, pH 7.2 and were mechanially dissociated by trituration approximately 10 times through a glass Pasteur pipet whose opening had been fire polished and constricted to a diameter such that it took 2 seconds to fill the pipet.
# The dissociated ganglia were then plated in culture medium (Dulbecco's Modified Eagle Medium supplemented with 10% fetal calf serum, 4 mM glutamine, 60 mg/L penicillin-G, 25 mM HEPES, pH 7.2) in 100 mm diameter tissue culture dishes (40 dissociated ganglia per dish) for three hours. […] After three hours, the nonadherent nerve cells were collection by centrifugation, resuspended in culture medium, and plated in 50 μl per well onto half area 96 well microtiter tissue culture plates at a density of 1500 nerve cells per well. The microtiter wells had been previously exposed to a 1 mg/ml solution of poly-L-ornithine in 10 mM sodium borate, pH 8.4 overnight at 4° C., washed in distilled water and air dried.
# Ten μl of a serial dilution of the sample to be assayed for neurotrophic activity was added to each well and the dishes were incubated for 20 hours at 37° C. in a humidified atmosphere containing 7.5% CO2. After 18 hours for ciliary and 40 hours for sympathetic ganglia, 15 μl per well of a 1.5 mg/ml solution of the tetrasolium dye MTT in Dulbecco's high glucose Modified Eagle Medium without bicarbonate containing 10 mM HEPES, pH 7.2, was added and the cultures placed in the 37° C. incubator for 4 hours. Then, 75 μl of a solution of 6.7 ml of 12 M HCl per liter of isopropanol was added and the contents of each well triturated 30 times to break open the cells and suspend the dye. The absorbance of 570 nm was determined relative to a 690 nm reference for each well using an automatic microtiter plate reader (Dynatech, Chantilly, Va.). The absorbance of wells which had not received any neurotrophic agent (negative controls) was substracted from the absorbance of sample-containing wells. The resulting absorbance is proportional to the number of living cells in each well, defined as those nerve cells capable of reducing the dye. The number of trophic units of neurotrophic activity was defined as the reciprocal of the dilution that gave 50% of maximal survival of nerve cells. Specific activity was determined by dividing the number of trophic units by the amount of protein present in the sample.
# [5] = test system: dopaminergic neurons in rat embryo (E16) mesencephalic cell cultures; assay: Bioassay for dopaminergic neurotrophic activity: 3H-dopamine uptake in dissociated mesencephalic cell cultures; format: cell-based; settings: cultures grown with GDNF for 15 days
molecule,measurement,setting,value
"glial cell line-derived neurotrophic factor (protein, dopaminergic neurotrophic protein purified from serum-free conditioned medium of rat B49 glioblastoma cells; disulfide-bonded dimer) SNMPEDYPDQFDDVMDFIQATIKRLKRSPDKQMAVLPRRERNRQAAAANPENSRGKGRRGQRGKNRGCVLTAIHLNVTDLGLGYETKEELIFRYCSGSCDAAETTYDKILKNLSRNRRLVTDKVGQACCRPIAF",14C-GABA uptake higher than control,[1],~20%
same,effect on serotonin uptake,[2],fails to increase the uptake of serontonin
same,survival of parasympathetic nerve cells,[3],promotes the survival in culture of parasympathetic nerve cells
same,bioactivity in sympathetic neuron survival bioassay,[4],promotes the survival in culture of symphathetic nerve cells
same,ED50 for sympathetic neuron survival,[4]; chick embryo (E10) sympathetic ganglia,about 5 ng/ml
same,3H-DA uptake capacity over control without GDNF,[5],~150%
